The results in this text go back to patent US20240360203A1.

Read-outs that look alike come from different tables or passages of the source.

Test [1] concerns the target T1, SARS-CoV-2 spike S2 peptide 1143-1162, biotinylated (SARS-CoV-2). Kind of test: SPR, Fab over captured biotin-peptide, 25 C. (In general: SPR reads the build-up and loss of mass on a sensor chip optically.)
Test [2] concerns the target T2, SARS-CoV-2 spike S2 peptide 1149-1167, biotinylated (SARS-CoV-2). Kind of test: SPR, Fab over captured biotin-peptide, 25 C.
The target of test [3] is T2, SARS-CoV-2 spike S2 peptide 1149-1167, …. Kind of test: SPR, Fab over captured biotin-peptide, 25 C. The source holds these as a separate data set.
Test [4] deals with HIV-1 Env peptide, biotinylated (negative control) (HIV-1). Kind of test: DELFIA on captured biotin-peptide. On the set-up: unit not given beside the values.
The target of test [5] is T2, SARS-CoV-2 spike S2 peptide 1149-1167, …. Kind of test: DELFIA on captured biotin-peptide. On the set-up: unit not given beside the values.
The target in test [6] is T1, SARS-CoV-2 spike S2 peptide 1143-1162, …. Kind of test: DELFIA on captured biotin-peptide. On the set-up: unit not given beside the values.

B1: AB-1 Fab (Fab, V domains shown)
VH: EVQLVESGAEVKKPGESLKISCKGSGYTFTRYWIGWVRQMPGKGLEWMGIIYPGDSDVRYSPSFQGHVTISADKSISTAYLQWNSLKASDTAMYYCARLPQYCSKGVCYRWFDPWGQGTLVTVSS
VL: EIVLTQSPSSVSASVGDRVTITCRASQGISSWLAWYQQKPGKAPKLLIYAASSLQSGVPSRFSGSGSGTDFTLTISSLQPEDFATYYCQQGHSFPYTFGQGTNLEIK
For orientation: Kd means the free concentration of one partner at which half of the binding sites on the other are occupied at equilibrium, for simple one-to-one binding. Usually koff stands for the rate constant with which the complex falls apart. For orientation: kon means the second-order rate constant of association. As for B1, in test [1], the Kd was determined as 12.3 nM, the koff turned out to be 0.037 s⁻¹ and the kon was 3e+06 M⁻¹ s⁻¹. In test [2], this molecule returned a Kd of 0.9 nM, a koff of 0.00241 s⁻¹ and a kon of 2.61e+06 M⁻¹ s⁻¹. In addition, the Kd in test [3] was 0.925 nM.

B2: Reference Antibody (antibody, V domains shown)
VH: EVQLVESGAEVKKPGESLKISCKGSGYTFTRYWIGWVRQMPGKGLEWMGIIYPGDSDTRYSPSFQGHVTISADKSISTAYLQWNSLKASDTAMYYCARLPQYCSNGVCQRWFDPWGQGTLVTVSS
VL: EIVLTQSPSSVSASVGDRVTITCRASQGISSWLAWYQQKPGKAPKLLIYAASSLQSGVPSRFSGSGSGTDFTLTISSLQPEDFATYYCQQGNSFPYTFGQGTNLEIK
For the molecule B2, the AUC was 16100 in test [4] and 3.05e+06 in test [5].

B3: Reference Antibody Fab (Fab, V domains shown)
VH: EVQLVESGAEVKKPGESLKISCKGSGYTFTRYWIGWVRQMPGKGLEWMGIIYPGDSDTRYSPSFQGHVTISADKSISTAYLQWNSLKASDTAMYYCARLPQYCSNGVCQRWFDPWGQGTLVTVSS
VL: EIVLTQSPSSVSASVGDRVTITCRASQGISSWLAWYQQKPGKAPKLLIYAASSLQSGVPSRFSGSGSGTDFTLTISSLQPEDFATYYCQQGNSFPYTFGQGTNLEIK
In test [2], B3 yielded a Kd of 5.4 nM, a koff of 0.00498 s⁻¹ and a kon of 929000 M⁻¹ s⁻¹. Further, in test [3], the Kd came out at 5.36 nM.

B4: AB-1 (antibody, V domains shown)
VH: EVQLVESGAEVKKPGESLKISCKGSGYTFTRYWIGWVRQMPGKGLEWMGIIYPGDSDVRYSPSFQGHVTISADKSISTAYLQWNSLKASDTAMYYCARLPQYCSKGVCYRWFDPWGQGTLVTVSS
VL: EIVLTQSPSSVSASVGDRVTITCRASQGISSWLAWYQQKPGKAPKLLIYAASSLQSGVPSRFSGSGSGTDFTLTISSLQPEDFATYYCQQGHSFPYTFGQGTNLEIK
In the case of B4, the AUC in test [4] was 9860; in test [6], 3.52e+06; in test [5], 3.27e+06.
